Data as given in patent publication US20210315933A1 (TCR2 THERAPEUTICS, published 2021).

Target: T1, human IL13Rα2 on cells (human, UniProt Q14627 27-380)
T1 construct: whole, on cells; also called hIL13Rα2
T1 sequence (looked up): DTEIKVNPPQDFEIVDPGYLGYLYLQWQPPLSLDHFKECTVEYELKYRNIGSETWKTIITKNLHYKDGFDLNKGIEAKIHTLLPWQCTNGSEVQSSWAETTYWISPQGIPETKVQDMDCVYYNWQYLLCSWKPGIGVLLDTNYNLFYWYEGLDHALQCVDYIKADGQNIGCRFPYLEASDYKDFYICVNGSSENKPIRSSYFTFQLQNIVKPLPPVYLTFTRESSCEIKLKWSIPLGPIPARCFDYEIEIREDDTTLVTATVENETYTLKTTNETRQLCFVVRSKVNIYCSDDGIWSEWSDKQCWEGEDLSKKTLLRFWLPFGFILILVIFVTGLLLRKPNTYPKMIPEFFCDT
Test: flow cytometry control; cell line not stated

Substance	Flow Cytometry MFI [MFI]
2o Ab (secondary antibody alone, flow cytometry control)	90.4
Isotype Control (flow cytometry control) (antibody)	21.4
